Molecular target: rabbit skeletal muscle actin (monomeric, Mg-εATP-actin) (rabbit, UniProt P68135 1-377)
Assay: actin nucleotide exchange kinetics

B1: Toxoplasma gondii profilin (TgPRF) (natural protein)
chain: MSDWDPVVKEWLVDTGYCCAGGIANAEDGVVFAAAADDDDGWSKLYKDDHEEDTIGEDGNACGKVSINEASTIKAAVDDGSAPNGVWIGGQKYKVVRPEKGFEYNDCTFDITMCARSKGGAHLIKTPNGSIVIALYDEEKEQDKGNSRTSALAFAEYLHQSGY
modifications: selenomethionine-substituted (level of selenium substitution essentially 100%)
Kd: 13.9 ± 5 µM

B2: TgPRF β-hairpin deletion mutant (ΔBH) (natural protein)
chain: MSDWDPVVKEWLVDTGYCCAGGIANAEDGVVFAAAADDDDGWSKLYKDDNEASTIKAAVDDGSAPNGVWIGGQKYKVVRPEKGFEYNDCTFDITMCARSKGGAHLIKTPNGSIVIALYDEEKEQDKGNSRTSALAFAEYLHQSGY
Kd: > 150 µM

— publication PMC2957522 (Journal of molecular biology, 2010)
